Results on 1 substance are retold here after article PMC2712671.

For the assay, the target named is His6-tagged MogR_(1-162) (Listeria monocytogenes) (UniProt P0DJO8). In words: crystal structure.

“His6-tagged MogR_(1-162) (from UniProt P0DJO8 1-162) (domain or fragment)” returned a stoichiometry N of 2.

Usually stoichiometry N stands for the number of molecules, sites or subunits per partner or assembly.
